Measurements reported in patent US20140087995A1 (published 2014).
One block for each binder: values may come before it. Numbered stars: 1 amine (or outer) side, 2 acyl side, 3 side chain; on linkers, the order of the positions; unused ones are H or OH. Bridge positions count the residues as written; N and C are the ends. Side chains are listed from the residue outwards. Ends that are not written are not given here. * marks the point of attachment. C20 diacid = O=C(O)CCCCCCCCCCCCCCCCCCC(=O)*; γGlu = O=C(O)[C@H](CCC(=O)[*:2])N[*:1]

Target: T1, human calcitonin receptor (human, UniProt P30988 25-474)
T1 sequence (looked up): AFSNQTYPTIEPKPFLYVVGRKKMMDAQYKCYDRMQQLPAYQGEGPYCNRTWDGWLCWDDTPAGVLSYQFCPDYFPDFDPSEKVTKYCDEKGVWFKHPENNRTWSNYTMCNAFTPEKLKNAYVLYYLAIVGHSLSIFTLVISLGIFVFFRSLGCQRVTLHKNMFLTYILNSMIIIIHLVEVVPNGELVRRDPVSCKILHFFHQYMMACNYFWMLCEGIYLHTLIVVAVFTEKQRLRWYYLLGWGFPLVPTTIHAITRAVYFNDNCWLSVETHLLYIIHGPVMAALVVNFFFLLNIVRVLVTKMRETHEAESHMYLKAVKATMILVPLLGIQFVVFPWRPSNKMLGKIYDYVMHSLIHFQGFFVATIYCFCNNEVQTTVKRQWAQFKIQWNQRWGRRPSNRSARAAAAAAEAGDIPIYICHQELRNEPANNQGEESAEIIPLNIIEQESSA
Assay: cell-based or functional assay

Binder: K([γGlu-γGlu-C20 diacid])CNTATCATQRLADFLRHSSPNFGAIPSSTNVGPETY-NH2 (disulfide 2-7)
hCTR funct. EC50 (pM): 843 pM

B2: N^ε1-[(4S)-4-carboxy-4-[[(4S)-4-carboxy-4-(19-carboxynonadecanoylamino)butanoyl]amino]butanoyl]-[Glu14,Arg17,Pro21,Pro27,Pro34,Glu35,Pro37]-h-amylin (peptide)
peptide: K([γGlu-γGlu-C20 diacid])CNTATCATQRLAEFLRHSSPNFGAIPSSTNVGPETP-NH2
modifications: disulfide 2-7; N-terminus assumed
SMILES: CC[C@H](C)[C@H](NC(=O)[C@H](C)NC(=O)CNC(=O)[C@H](Cc1ccccc1)NC(=O)[C@H](CC(N)=O)NC(=O)[C@@H]1CCCN1C(=O)[C@H](CO)NC(=O)[C@H](CO)NC(=O)[C@H](Cc1c[nH]cn1)NC(=O)[C@H](CCCNC(=N)N)NC(=O)[C@H](CC(C)C)NC(=O)[C@H](Cc1ccccc1)NC(=O)[C@H](CCC(=O)O)NC(=O)[C@H](C)NC(=O)[C@H](CC(C)C)NC(=O)[C@H](CCCNC(=N)N)NC(=O)[C@H](CCC(N)=O)NC(=O)[C@@H](NC(=O)[C@H](C)NC(=O)[C@@H]1CSSC[C@H](NC(=O)[C@@H](N)CCCCNC(=O)CC[C@H](NC(=O)CC[C@H](NC(=O)CCCCCCCCCCCCCCCCCCC(=O)O)C(=O)O)C(=O)O)C(=O)N[C@@H](CC(N)=O)C(=O)N[C@@H]([C@@H](C)O)C(=O)N[C@@H](C)C(=O)N[C@@H]([C@@H](C)O)C(=O)N1)[C@@H](C)O)C(=O)N1CCC[C@H]1C(=O)N[C@@H](CO)C(=O)N[C@@H](CO)C(=O)N[C@H](C(=O)N[C@@H](CC(N)=O)C(=O)N[C@H](C(=O)NCC(=O)N1CCC[C@H]1C(=O)N[C@@H](CCC(=O)O)C(=O)N[C@H](C(=O)N1CCC[C@H]1C(N)=O)[C@@H](C)O)C(C)C)[C@@H](C)O
hCTR funct. EC50 (pM): 102 pM

B4: N^ε1-[(4S)-4-carboxy-4-(19-carboxynonadecanoylamino)butanoyl]-[Glu14,Arg17,Pro21,Pro27,His35]-h-amylin (peptide)
peptide: K([γGlu-C20 diacid])CNTATCATQRLAEFLRHSSPNFGAIPSSTNVGSHTY-NH2
modifications: disulfide 2-7; N-terminus assumed
SMILES: CC[C@H](C)[C@H](NC(=O)[C@H](C)NC(=O)CNC(=O)[C@H](Cc1ccccc1)NC(=O)[C@H](CC(N)=O)NC(=O)[C@@H]1CCCN1C(=O)[C@H](CO)NC(=O)[C@H](CO)NC(=O)[C@H](Cc1c[nH]cn1)NC(=O)[C@H](CCCNC(=N)N)NC(=O)[C@H](CC(C)C)NC(=O)[C@H](Cc1ccccc1)NC(=O)[C@H](CCC(=O)O)NC(=O)[C@H](C)NC(=O)[C@H](CC(C)C)NC(=O)[C@H](CCCNC(=N)N)NC(=O)[C@H](CCC(N)=O)NC(=O)[C@@H](NC(=O)[C@H](C)NC(=O)[C@@H]1CSSC[C@H](NC(=O)[C@@H](N)CCCCNC(=O)CC[C@H](NC(=O)CCCCCCCCCCCCCCCCCCC(=O)O)C(=O)O)C(=O)N[C@@H](CC(N)=O)C(=O)N[C@@H]([C@@H](C)O)C(=O)N[C@@H](C)C(=O)N[C@@H]([C@@H](C)O)C(=O)N1)[C@@H](C)O)C(=O)N1CCC[C@H]1C(=O)N[C@@H](CO)C(=O)N[C@@H](CO)C(=O)N[C@H](C(=O)N[C@@H](CC(N)=O)C(=O)N[C@H](C(=O)NCC(=O)N[C@@H](CO)C(=O)N[C@@H](Cc1c[nH]cn1)C(=O)N[C@H](C(=O)N[C@@H](Cc1ccc(O)cc1)C(N)=O)[C@@H](C)O)C(C)C)[C@@H](C)O
hCTR funct. EC50 (pM): 5580 pM

B5: N^ε1-[(4S)-4-carboxy-4-[[(4S)-4-carboxy-4-(19-carboxynonadecanoylamino)butanoyl]amino]butanoyl]-[Glu14,Arg17,Pro21,Pro27,His34,Glu35]-h-amylin (peptide)
peptide: K([γGlu-γGlu-C20 diacid])CNTATCATQRLAEFLRHSSPNFGAIPSSTNVGHETY-NH2
modifications: disulfide 2-7; N-terminus assumed
SMILES: CC[C@H](C)[C@H](NC(=O)[C@H](C)NC(=O)CNC(=O)[C@H](Cc1ccccc1)NC(=O)[C@H](CC(N)=O)NC(=O)[C@@H]1CCCN1C(=O)[C@H](CO)NC(=O)[C@H](CO)NC(=O)[C@H](Cc1c[nH]cn1)NC(=O)[C@H](CCCNC(=N)N)NC(=O)[C@H](CC(C)C)NC(=O)[C@H](Cc1ccccc1)NC(=O)[C@H](CCC(=O)O)NC(=O)[C@H](C)NC(=O)[C@H](CC(C)C)NC(=O)[C@H](CCCNC(=N)N)NC(=O)[C@H](CCC(N)=O)NC(=O)[C@@H](NC(=O)[C@H](C)NC(=O)[C@@H]1CSSC[C@H](NC(=O)[C@@H](N)CCCCNC(=O)CC[C@H](NC(=O)CC[C@H](NC(=O)CCCCCCCCCCCCCCCCCCC(=O)O)C(=O)O)C(=O)O)C(=O)N[C@@H](CC(N)=O)C(=O)N[C@@H]([C@@H](C)O)C(=O)N[C@@H](C)C(=O)N[C@@H]([C@@H](C)O)C(=O)N1)[C@@H](C)O)C(=O)N1CCC[C@H]1C(=O)N[C@@H](CO)C(=O)N[C@@H](CO)C(=O)N[C@H](C(=O)N[C@@H](CC(N)=O)C(=O)N[C@H](C(=O)NCC(=O)N[C@@H](Cc1c[nH]cn1)C(=O)N[C@@H](CCC(=O)O)C(=O)N[C@H](C(=O)N[C@@H](Cc1ccc(O)cc1)C(N)=O)[C@@H](C)O)C(C)C)[C@@H](C)O
hCTR funct. EC50 (pM): 7050 pM

The remaining lines, values ahead:

hCTR funct. EC50 (pM): 1120 pM
B1: N^ε1-[(4S)-4-carboxy-4-(19-carboxynonadecanoylamino)butanoyl]-[Asp14,Arg17,Pro21,Pro27,Pro34,Glu35]-h-amylin (peptide)
peptide: K([γGlu-C20 diacid])CNTATCATQRLADFLRHSSPNFGAIPSSTNVGPETY-NH2
modifications: disulfide 2-7; N-terminus assumed
SMILES: CC[C@H](C)[C@H](NC(=O)[C@H](C)NC(=O)CNC(=O)[C@H](Cc1ccccc1)NC(=O)[C@H](CC(N)=O)NC(=O)[C@@H]1CCCN1C(=O)[C@H](CO)NC(=O)[C@H](CO)NC(=O)[C@H](Cc1c[nH]cn1)NC(=O)[C@H](CCCNC(=N)N)NC(=O)[C@H](CC(C)C)NC(=O)[C@H](Cc1ccccc1)NC(=O)[C@H](CC(=O)O)NC(=O)[C@H](C)NC(=O)[C@H](CC(C)C)NC(=O)[C@H](CCCNC(=N)N)NC(=O)[C@H](CCC(N)=O)NC(=O)[C@@H](NC(=O)[C@H](C)NC(=O)[C@@H]1CSSC[C@H](NC(=O)[C@@H](N)CCCCNC(=O)CC[C@H](NC(=O)CCCCCCCCCCCCCCCCCCC(=O)O)C(=O)O)C(=O)N[C@@H](CC(N)=O)C(=O)N[C@@H]([C@@H](C)O)C(=O)N[C@@H](C)C(=O)N[C@@H]([C@@H](C)O)C(=O)N1)[C@@H](C)O)C(=O)N1CCC[C@H]1C(=O)N[C@@H](CO)C(=O)N[C@@H](CO)C(=O)N[C@H](C(=O)N[C@@H](CC(N)=O)C(=O)N[C@H](C(=O)NCC(=O)N1CCC[C@H]1C(=O)N[C@@H](CCC(=O)O)C(=O)N[C@H](C(=O)N[C@@H](Cc1ccc(O)cc1)C(N)=O)[C@@H](C)O)C(C)C)[C@@H](C)O

hCTR funct. EC50 (pM): 1450 pM
Binder: K([γGlu-C20 diacid])CNTATCATQRLAEFLRHSSPNFGAIPSSTNVGPHTY-NH2 (disulfide 2-7)

hCTR funct. EC50 (pM): 2830 pM
Binder: K([γGlu-γGlu-C20 diacid])CNTATCATQRLAEFLRHSSPNFGAIPSSTNVGPHTY-NH2 (disulfide 2-7 (inferred))

hCTR funct. EC50 (pM): 8660 pM
B3: N^ε1-[(4S)-4-carboxy-4-[[(4S)-4-carboxy-4-(19-carboxynonadecanoylamino)butanoyl]amino]butanoyl]-[Arg17,Pro21,Pro27,Pro31,Pro34,Arg35]-h-amylin (peptide)
peptide: K([γGlu-γGlu-C20 diacid])CNTATCATQRLANFLRHSSPNFGAIPSSTPVGPRTY-NH2
modifications: disulfide 2-7; N-terminus assumed
SMILES: CC[C@H](C)[C@H](NC(=O)[C@H](C)NC(=O)CNC(=O)[C@H](Cc1ccccc1)NC(=O)[C@H](CC(N)=O)NC(=O)[C@@H]1CCCN1C(=O)[C@H](CO)NC(=O)[C@H](CO)NC(=O)[C@H](Cc1c[nH]cn1)NC(=O)[C@H](CCCNC(=N)N)NC(=O)[C@H](CC(C)C)NC(=O)[C@H](Cc1ccccc1)NC(=O)[C@H](CC(N)=O)NC(=O)[C@H](C)NC(=O)[C@H](CC(C)C)NC(=O)[C@H](CCCNC(=N)N)NC(=O)[C@H](CCC(N)=O)NC(=O)[C@@H](NC(=O)[C@H](C)NC(=O)[C@@H]1CSSC[C@H](NC(=O)[C@@H](N)CCCCNC(=O)CC[C@H](NC(=O)CC[C@H](NC(=O)CCCCCCCCCCCCCCCCCCC(=O)O)C(=O)O)C(=O)O)C(=O)N[C@@H](CC(N)=O)C(=O)N[C@@H]([C@@H](C)O)C(=O)N[C@@H](C)C(=O)N[C@@H]([C@@H](C)O)C(=O)N1)[C@@H](C)O)C(=O)N1CCC[C@H]1C(=O)N[C@@H](CO)C(=O)N[C@@H](CO)C(=O)N[C@H](C(=O)N1CCC[C@H]1C(=O)N[C@H](C(=O)NCC(=O)N1CCC[C@H]1C(=O)N[C@@H](CCCNC(=N)N)C(=O)N[C@H](C(=O)N[C@@H](Cc1ccc(O)cc1)C(N)=O)[C@@H](C)O)C(C)C)[C@@H](C)O

hCTR funct. EC50 (pM): 2540 pM
B6: N^ε1-[(4S)-4-carboxy-4-(19-carboxynonadecanoylamino)butanoyl]-[Glu14,Arg17,Pro21,Pro27,His34,Glu35]-h-amylin (peptide)
peptide: K([γGlu-C20 diacid])CNTATCATQRLAEFLRHSSPNFGAIPSSTNVGHETY-NH2
modifications: disulfide 2-7; N-terminus assumed
SMILES: CC[C@H](C)[C@H](NC(=O)[C@H](C)NC(=O)CNC(=O)[C@H](Cc1ccccc1)NC(=O)[C@H](CC(N)=O)NC(=O)[C@@H]1CCCN1C(=O)[C@H](CO)NC(=O)[C@H](CO)NC(=O)[C@H](Cc1c[nH]cn1)NC(=O)[C@H](CCCNC(=N)N)NC(=O)[C@H](CC(C)C)NC(=O)[C@H](Cc1ccccc1)NC(=O)[C@H](CCC(=O)O)NC(=O)[C@H](C)NC(=O)[C@H](CC(C)C)NC(=O)[C@H](CCCNC(=N)N)NC(=O)[C@H](CCC(N)=O)NC(=O)[C@@H](NC(=O)[C@H](C)NC(=O)[C@@H]1CSSC[C@H](NC(=O)[C@@H](N)CCCCNC(=O)CC[C@H](NC(=O)CCCCCCCCCCCCCCCCCCC(=O)O)C(=O)O)C(=O)N[C@@H](CC(N)=O)C(=O)N[C@@H]([C@@H](C)O)C(=O)N[C@@H](C)C(=O)N[C@@H]([C@@H](C)O)C(=O)N1)[C@@H](C)O)C(=O)N1CCC[C@H]1C(=O)N[C@@H](CO)C(=O)N[C@@H](CO)C(=O)N[C@H](C(=O)N[C@@H](CC(N)=O)C(=O)N[C@H](C(=O)NCC(=O)N[C@@H](Cc1c[nH]cn1)C(=O)N[C@@H](CCC(=O)O)C(=O)N[C@H](C(=O)N[C@@H](Cc1ccc(O)cc1)C(N)=O)[C@@H](C)O)C(C)C)[C@@H](C)O
notes: also called compound 107
